The target of assay [1] is T1, huCTLA-4 ECD (his-tag) (human, UniProt P16410 37-162).
T1 construct: also called HX1 hCTLA4 his; HX1 huCTLA4 his; not shown: his-tag
T1 sequence: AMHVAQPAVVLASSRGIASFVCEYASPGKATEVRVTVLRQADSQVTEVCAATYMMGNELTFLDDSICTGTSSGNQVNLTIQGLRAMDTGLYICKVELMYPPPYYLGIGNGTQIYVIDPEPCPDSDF
The assay is described as follows: ELISA, coated huCTLA-4 his. The protocol:
HX1 hCTLA4 his was diluted with PBS (Hyclone) to 1.0 μg/mL, and the dilution was added to a microplate at 100 μL/well. The plate was let stand in an incubator at 37° C. and coated for 90 min and then washed, and 2% BSA was added to the plate at 200 μL/well. The plate was incubated in an incubator at 37° C. for 90 min and then washed. The humanized anti-CTLA-4 antibodies in Table 4 and the control antibody (ipilimumab) were diluted with a diluent (2% BSA) to 1000 ng/mL. The dilution performed each time was not higher than 10-fold. Then, the humanized antibodies and the control antibody were serially diluted 2.5-fold on a sample dilution plate. All the humanized antibody solutions and the control antibody solution were added to a microplate at 100 μL/well. The plate was incubated in an incubator at 37° C. for 60 min and then washed. An HRP-conjugated goat anti-human antibody IgG (Fc specific) was diluted 5000-fold with 2% BSA, and the dilution was added to the microplate at 100 μL/well. The plate was incubated in an incubator at 37° C. for 60 min and then washed. The color development solution TMB was added at 100 μL/well, during which bubbles were avoided. Color development was allowed at 37° C. for 15 min in the dark and then terminated by adding 2 M hydrochloric acid solution at 100 μL/well, during which bubbles were avoided. Reading (wavelength: 450/620 nm) was done within 10 min using a microplate reader.

Another assay has as its target T2, BTLA on 293T-BTLA cells (UniProt Q7Z6A9 31-289, limits assumed).
T2 construct: whole, on cells
The assay can be described thus: flow cytometry on 293T-BTLA cells. The protocol:
(§1) Then the above cell mixture was incubated with 5 μL of APC-labeled murine secondary antibody (Southern Biotech) at 4° C. for 20 min, and the secondary antibody bound onto the cells was detected. The control antibody was selected from commercially available CTLA4 monoclonal antibody L3D10 (BioLegend) and TIGIT monoclonal antibody MBSA43 (eBioscience).

The target in assay [2] is T3, TIGIT on 293T-TIGIT cells (UniProt Q495A1 22-244, limits assumed).
T3 construct: whole, on cells
T3 sequence (looked up): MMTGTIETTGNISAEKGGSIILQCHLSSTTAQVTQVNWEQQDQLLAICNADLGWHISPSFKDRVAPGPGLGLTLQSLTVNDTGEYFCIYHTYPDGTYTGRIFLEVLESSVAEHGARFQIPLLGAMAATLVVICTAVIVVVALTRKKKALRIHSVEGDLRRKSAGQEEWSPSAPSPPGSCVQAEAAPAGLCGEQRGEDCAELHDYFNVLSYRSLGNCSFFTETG
The assay is described as follows: flow cytometry on 293T-TIGIT cells. The protocol:
as §1

The target in assay [3] is T4, huCTLA-4 (human, UniProt P16410 36-161).
T4 construct: also called human CTLA (huCTLA) antigen; huCTLA4 recombinant protein
T4 sequence: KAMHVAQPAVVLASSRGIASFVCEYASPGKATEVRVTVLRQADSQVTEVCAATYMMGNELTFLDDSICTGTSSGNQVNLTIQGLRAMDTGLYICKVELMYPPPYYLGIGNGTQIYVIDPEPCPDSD
The assay is described as follows: ForteBio.

Assay [4] has as its target T4, huCTLA-4. The assay can be described thus: FACS blocking, huCTLA4 recombinant protein on CD86-expressing CHO cells; CD86-expressing CHO cells. The method, then: (§2) The chimeric antibodies in Table 3 and the control antibody ipilimumab (serially diluted 3-fold from an initial concentration of 30 μg/mL) were each added to CD80- or CD86-expressing CHO cells (constructed in-house by Junmeng) together with a certain concentration of huCTLA4 recombinant protein. After they were co-incubated at room temperature for 30 min, a fluorescent secondary antibody (PE-anti human IgG4) (Southern biotech) was added to determine the abilities of the chimeric antibodies to block the binding of huCTLA-4 to the CD80/CD86-expressing cells.

Assay [5] addresses T5, huCTLA-4 expressed on cells (human, UniProt P16410 36-223).
T5 construct: the construct in the cells is not described; also called HuCTLA-4-expressing CHO cells; huCTLA-4-expressing Jurkat effector cells
T5 sequence: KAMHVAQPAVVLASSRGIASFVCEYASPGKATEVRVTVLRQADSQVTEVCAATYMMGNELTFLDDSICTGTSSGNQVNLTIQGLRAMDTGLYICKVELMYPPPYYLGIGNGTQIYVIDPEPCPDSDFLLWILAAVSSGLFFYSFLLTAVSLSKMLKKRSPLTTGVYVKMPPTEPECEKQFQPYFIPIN
The assay is described as follows: FACS on huCTLA-4-expressing CHO cells. The method, then: 6.2 FACS Detection of Binding of Chimeric Antibodies to huCTLA-4-Expressing Cells HuCTLA-4-expressing cells (constructed in-house by Junmeng; CHO from ATCC) were co-incubated with each of the chimeric antibodies in Table 3 and the control antibody (ipilimumab) (serially diluted 3-fold from an initial concentration of 10 μg/mL) at room temperature for 30 min, and then a fluorescent secondary antibody (PE-anti human IgG) was added to detect the binding of the chimeric antibodies to the huCTLA-4-expressing cells.

The target in assay [6] is T1, huCTLA-4 ECD (his-tag). The assay is described as follows: competition ELISA, coated huCTLA-4 his, competitor hCD80 Fc. The protocol: HX1 huCTLA4 his was diluted with PBS (Hyclone) to 1.0 μg/mL, and the dilution was added to a microplate at 100 μL/well. The plate was let stand in an incubator at 37° C. and incubated for 90 min and then washed, and 2% BSA was added to the plate at 200 μL/well. The plate was incubated in an incubator at 37° C. for 90 min and then washed. MX2 hCD80 Fc was diluted with 2% BSA to 5.0 μg/mL, and the dilution was used to dilute samples. The chimeric antibodies and the control antibody ipilimumab were diluted to 100 μg/mL. The dilution performed each time was not higher than 10-fold. Then, the chimeric antibodies and the control antibody were serially diluted 2.5-fold on a sample dilution plate. All the chimeric antibody solutions and the control antibody solution were added to a microplate at 100 μL/well. The plate was incubated in an incubator at 37° C. for 90 min and then washed. An HRP-conjugated goat anti-mouse antibody IgG (Fc specific) (Sigma, Catalog No. A2554) was diluted 5000-fold with 2% BSA, and the dilution was added to the microplate at 100 μL/well. The plate was incubated in an incubator at 37° C. for 60 min and then washed. The color development solution TMB was added at 100 μL/well, during which bubbles were avoided. Color development was allowed at 37° C. for 15 min in the dark and then terminated by adding 2 M hydrochloric acid solution at 100 μL/well, during which bubbles were avoided. Reading (wavelength: 450/620 nm) was done within 10 min using a microplate reader.

The target in assay [7] is T4, huCTLA-4. The assay is described as follows: FACS blocking, huCTLA4 recombinant protein on CD80-expressing CHO cells; CD80-expressing CHO cells. The method, then:
as §2

B1: HuJS007-87 (antibody, V domains shown)
VH: QVQLQESGPGLVKPSQTLSLTCAVSGYSISSGYYWNWIRQFPGKGLEWMGYIGYDGSNYYNPSLKNRVTMSVDTSKNQFSLKLSSVTAVDTAVYYCARNYYSGYFDSWGQGTTVTVSS
VL: DIVMTQSPDSLAVSLGERATINCKASQNVGTYVAWYQQKPGQPPKLLIYSTSYRYSGVPDRFSGSGSGTDFTLTISSLQAEDVAVYYCHQYDTYPLTFGQGTKLEIK
notes: 1A5 VH6 + 4B7VL6; constant regions not specified
For B1, the binding result with huCTLA-4 ECD (his-tag) [1] is reported as “binds”.

B2: HuJS007-88 (antibody, V domains shown)
VH: QVQLQESGPGLVKPSQTLSLTCAVSGYSISSGYYWNWIRQFPGKGLEWMGYIGYDGSNYYNPSLKNRVTMSVDTSKNQFSLKLSSVTAVDTAVYYCARNYYSGYFDSWGQGTTVTVSS
VL: EIVMTQSPATLSVSPGERATLSCRASQNVGTYVAWYQQKPGQAPRPLIYSTSYRYSGIPARFSGSGSGTEFTLTISSLQSEDFAVYYCHQYDTYPLTFGQGTKLEIK
notes: 1A5 VH6 + 4B7VL7; constant regions not specified
As for B2, the binding result in the assay with huCTLA-4 ECD (his-tag) [1] is recorded as “binds”.

B3: 3E6.1 (antibody, V domains shown)
VH: EVKLVESGGGLVQPGGSLRLSCATSGFTFTDYYMSWVRQPPGKALEWLGFIRNKANGFTAEYSASVKGRFTISRDNSQSILYLQMNTLRAEDSATYYCARDSLAYPHYYAMDYWGQGTSVTVSS
VL: QIVLTQSPALMSASPGEKVTMTCSASSSVSYMYWYQQKPRSSPKPWIYLTSNLASGVPVRFSGSGSGTSYSLTISSMEAEDAATYYCQQWSSNSFTFGSGTKLEIK
notes: Murine hybridoma antibody
In the case of B3, the binding result (with BTLA on 293T-BTLA cells; in assay [2]) was “no binding (tested: 1 µg of hybridoma antibody)” in each case. This molecule also registered a Kd with huCTLA-4 [3] below 0.001 nM.

B4: 5B9.1 (antibody, V domains shown)
VH: EVQLQQSGPELVKPGASVKMSCKASGYTFTDYYMKWMKQSHGKSLEWIGHINPNNGDTFYNQKFTGKATLTVDKSSSTASMHLNSLTSEDSAVYYCARGGDGRGTWFAYWGQGTLVTVSS
VL: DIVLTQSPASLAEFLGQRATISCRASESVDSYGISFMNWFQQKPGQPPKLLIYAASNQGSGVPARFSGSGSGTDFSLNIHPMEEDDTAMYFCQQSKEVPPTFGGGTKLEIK
notes: Murine hybridoma antibody
In the case of B4, the binding result (with BTLA on 293T-BTLA cells; in assay [2]) was “no binding (tested: 1 µg of hybridoma antibody)” throughout. In the assay with huCTLA-4 [3], the Kd was below 0.001 nM.

B5: JS007-20 (antibody, V domains shown)
VH: EVQLQQSGPELVKPGASVKMSCKASGYTFTDYYMKWMKQSHGKSLEWIGHINPNNGDTFYNQKFTGKATLTVDKSSSTASMHLNSLTSEDSAVYYCARGGDGRGTWFAYWGQGTLVTVSS
VL: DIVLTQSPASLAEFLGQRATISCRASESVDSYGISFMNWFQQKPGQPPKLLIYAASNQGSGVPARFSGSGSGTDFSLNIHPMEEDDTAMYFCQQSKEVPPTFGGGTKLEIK
notes: also called JS007-20 chimeric antibody
Take B5: the results for the half-inhibitory concentration (IC50) with huCTLA-4 [4], in the assay with huCTLA-4 ECD (his-tag) [6] and with huCTLA-4 [7] were 0.253 ng/mL, 187 ng/mL and 1.21 ng/mL, respectively. Besides, the concentration giving a half-maximal response (EC50) is 486 ng/mL in assay [5] and 12.9 ng/mL in the assay with huCTLA-4 ECD (his-tag) [1].

B6: JS007-3 (antibody, V domains shown)
VH: DVQLQESGQGLVKPSQSLSLTCSVTGYSITSGYYWNWIRQFPGNKLEWLGYIGYDGSNYYNPSLKNRISITRDTSKNQFFLKLNSVTSEDTATYFCARNYYSGYFDFWGQGTTLTVSS
VL: DIVMTQSQKFMSTSVGDSVSVTCKASQNVGTYVAWYQQKPGQSPKPLIYSTSYRYSGVPDRFTGSGSGTDFTLTISNVQSEDLAEYFCHQYDTYPLTFGAGTKLELK
notes: also called JS007-3 chimeric antibody
B6: the IC50 amounted to 0.196 ng/mL in the assay with huCTLA-4 [4], 190 ng/mL with huCTLA-4 ECD (his-tag) [6] and 0.699 ng/mL with huCTLA-4 [7]. For the same molecule, the half-maximal effective concentration (EC50) in assay [5] came to 249 ng/mL; in the assay with huCTLA-4 ECD (his-tag) [1], 17.2 ng/mL.

B7: 1A5.1 (antibody, V domains shown)
VH: DVQLQESGQGLVKPSQSLSLTCSVTGYSITSGYYWNWIRQFPGNKLEWLGYIGYDGSNYYNPSLKNRISITRDTSKNQFFLKLNSVTSEDTATYFCARNYYSGYFDFWGQGTTLTVSS
VL: DIVMTQSQKFMSTSVGDRVSVTCKASQIVGSYVAWYQQKLGQSPKALIYSTSYRHSGVPDRFTGSGSGTDFTLTISNVQSEDLAEYFCQQHHLPLTFGAGTKLEIK
notes: Murine hybridoma antibody
Regarding B7, the binding result (with BTLA on 293T-BTLA cells; in assay [2]) was “no binding (tested: 1 µg of hybridoma antibody)” throughout. Besides, in the assay with huCTLA-4 [3], binding was characterised by a dissociation constant (Kd) of 1.74 nM.

B8: JS007-15 (antibody, V domains shown)
VH: DVQLQESGPGLVKPSQSLSLTCSVTAYSITSGYYWNWIRQFPGNKLEWMGYIGYDGSNNYNPSLKNRISITRDTSKNQFFLKLNSVTTEDTATYYCARDYYSGYFDSWGQGTTLTVSS
VL: DIVMTQSQKFMSTSVGDSVSVTCKASQNVGTYVAWYQQKPGQSPKPLIYSTSYRYSGVPDRFTGSGSGTDFTLTISNVQSEDLAEYFCHQYDTYPLTFGAGTKLELK
notes: also called JS007-15 chimeric antibody
Regarding B8, the values for the 50% inhibitory concentration (IC50) in the assay with huCTLA-4 [4], with huCTLA-4 ECD (his-tag) [6] and with huCTLA-4 [7] were 0.0816 ng/mL, 190 ng/mL and 0.398 ng/mL, respectively. Besides, the EC50 in assay [5] stood at 189 ng/mL; with huCTLA-4 ECD (his-tag) [1], 19.7 ng/mL.

Values taken from US20230295301A1 (SHANGHAI JUNSHI BIOSCIENCES, published 2023).
